Experimental data as given in patent US20060115479A1 (INTERCELL, published 2006).

Legend:
human fibrinogen (human) [1] = target: human fibrinogen (human) (UniProt P02671); experiment: FITC-labelled bacteria on immobilized fibrinogen; less than 2% of the fbsA mutants bound (FIG. 23)
human fibrinogen (human) [2] = target: human fibrinogen (human) (UniProt P02671); experiment: 125I-fibrinogen bound to whole bacteria; fbsA deletion mutant bound less than 2%
human fibrinogen (human) [3] = target: human fibrinogen (human) (UniProt P02671); experiment: FITC-labelled bacteria on fibrinogen-coated Terasaki plates; less than 2% of the fbsA mutant bound
human fibrinogen (human) [4] = target: human fibrinogen (human) (UniProt P02671); experiment: radiolabelled soluble human fibrinogen bound to whole GBS 6313 cells; the filing later attributes the binding to FbsA
human fibrinogen [5] = target: T1, human fibrinogen (human, UniProt P02671 20-629; P02675 31-491; P02679 27-437); experiment: refers to the SPOT membrane analysis of FIG. 11
T1 construct: also called 125I-labelled fibrinogen; immobilized fibrinogen
T1 sequence 1: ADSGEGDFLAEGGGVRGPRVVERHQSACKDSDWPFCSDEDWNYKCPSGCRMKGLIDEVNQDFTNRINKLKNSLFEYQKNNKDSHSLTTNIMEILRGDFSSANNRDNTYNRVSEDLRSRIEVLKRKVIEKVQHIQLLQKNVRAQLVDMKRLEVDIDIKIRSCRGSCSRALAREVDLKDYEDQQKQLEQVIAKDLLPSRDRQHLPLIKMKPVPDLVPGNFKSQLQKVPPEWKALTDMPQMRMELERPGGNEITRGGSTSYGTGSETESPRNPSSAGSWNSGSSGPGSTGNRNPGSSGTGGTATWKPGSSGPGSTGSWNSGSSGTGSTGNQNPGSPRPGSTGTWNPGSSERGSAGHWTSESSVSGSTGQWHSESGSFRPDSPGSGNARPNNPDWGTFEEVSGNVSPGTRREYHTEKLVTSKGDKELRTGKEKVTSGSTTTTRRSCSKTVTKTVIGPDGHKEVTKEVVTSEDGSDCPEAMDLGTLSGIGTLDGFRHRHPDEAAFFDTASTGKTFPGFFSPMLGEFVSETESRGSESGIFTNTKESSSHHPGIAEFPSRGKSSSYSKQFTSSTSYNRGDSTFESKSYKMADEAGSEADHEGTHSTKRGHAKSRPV
T1 sequence 2: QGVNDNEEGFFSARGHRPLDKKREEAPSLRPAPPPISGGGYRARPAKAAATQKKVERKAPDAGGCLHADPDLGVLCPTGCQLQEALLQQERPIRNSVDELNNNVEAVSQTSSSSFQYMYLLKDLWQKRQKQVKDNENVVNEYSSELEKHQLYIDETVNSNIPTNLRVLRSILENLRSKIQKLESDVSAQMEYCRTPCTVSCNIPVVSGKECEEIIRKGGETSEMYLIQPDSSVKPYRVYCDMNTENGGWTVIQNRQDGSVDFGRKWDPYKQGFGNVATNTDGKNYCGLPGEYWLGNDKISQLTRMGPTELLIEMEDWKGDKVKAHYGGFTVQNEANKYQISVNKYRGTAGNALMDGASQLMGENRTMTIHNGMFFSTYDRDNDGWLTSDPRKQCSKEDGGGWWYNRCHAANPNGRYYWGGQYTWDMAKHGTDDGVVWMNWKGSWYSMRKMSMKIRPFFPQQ
T1 sequence 3: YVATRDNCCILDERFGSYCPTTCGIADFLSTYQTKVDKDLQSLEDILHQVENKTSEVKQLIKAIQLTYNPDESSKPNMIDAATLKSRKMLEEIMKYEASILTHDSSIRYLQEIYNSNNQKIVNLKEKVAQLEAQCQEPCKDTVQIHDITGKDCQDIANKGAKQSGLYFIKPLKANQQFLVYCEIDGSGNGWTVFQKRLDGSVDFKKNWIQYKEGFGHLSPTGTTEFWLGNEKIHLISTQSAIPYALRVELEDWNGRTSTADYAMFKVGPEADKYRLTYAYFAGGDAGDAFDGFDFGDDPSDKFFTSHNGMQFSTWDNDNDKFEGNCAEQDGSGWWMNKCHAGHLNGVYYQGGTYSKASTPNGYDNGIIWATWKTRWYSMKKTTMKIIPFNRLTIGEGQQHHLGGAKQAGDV

human fibrinogen [6] = target: T1, human fibrinogen; experiment: dot blot / SPOT membrane overlaid with human fibrinogen (FIG. 11)

Question: With “FbsA protein of GBS strain 0176 H4A (native) (receptor)” as the molecule, how does the percent of total bacteria bound to immobilized fibrinogen (human fibrinogen (human) [1]) read?
Answer: 4%

Question: Which percent of total bacteria bound to immobilized fibrinogen (human fibrinogen (human) [1]) does the source give for “FbsA protein of GBS strain O90R (native) (receptor)” here?
Answer: 18%

Question: What about the percent binding of 125I-labelled soluble fibrinogen (human fibrinogen (human) [2]) of the same molecule?
Answer: 12%

Question: And the percent of total bacteria bound to immobilized fibrinogen (human fibrinogen (human) [3])?
Answer: 24%

Question: How did the percent of total radiolabelled fibrinogen bound (human fibrinogen (human) [4]) turn out when “FbsA protein of GBS strain 6313 (native) (receptor)” was run?
Answer: 50%

Question: And the percent of total bacteria bound to immobilized fibrinogen (human fibrinogen (human) [1])?
Answer: 45%

Question: What about the percent binding of 125I-labelled soluble fibrinogen (human fibrinogen (human) [2]) of the same molecule?
Answer: 50%

Question: What about the percent of total bacteria bound to immobilized fibrinogen (human fibrinogen (human) [3]) of the same molecule?
Answer: 45%

Question: “FbsA protein of GBS strain SS1169 (native) (receptor)” was tested. Which percent of total bacteria bound to immobilized fibrinogen (human fibrinogen (human) [1]) did it give?
Answer: 7%

Question: What does the source list for “FbsA protein of GBS strain 706 S2 (native) (receptor)”?
Answer: percent of total bacteria bound to immobilized fibrinogen (human fibrinogen (human) [1]): 14%; percent binding of 125I-labelled soluble fibrinogen (human fibrinogen (human) [2]): 8%; percent of total bacteria bound to immobilized fibrinogen (human fibrinogen (human) [3]): 15%

Question: Does GAVLERRQRDAENRSQ (also called peptide <2>; N2A) [alanine mutant peptide GAVLERRQRDAENRSQ] bind (human fibrinogen [5])?
Answer: no binding

Question: Does GNVLERAQRDAENRSQ (also called peptide <5>; R7A) [alanine mutant peptide GNVLERAQRDAENRSQ] bind (human fibrinogen [5])?
Answer: no binding

Question: Does GNALERRQRDAENRSQ (also called peptide <3>; V3A) [alanine mutant peptide GNALERRQRDAENRSQ] bind (human fibrinogen [5])?
Answer: no binding

B1: scrambled peptide GLSQNRDVRENQRARE (peptide)
peptide: GLSQNRDVRENQRARE
notes: Same amino acids as the repeat unit in a different order; spotted on cellulose; also called randomised peptide
Question: Does B1 bind (human fibrinogen [6])?
Answer: no binding (tested: 2 µg/ml of human fibrinogen)
